How the values were obtained:
Fes = Fes (UniProt P07332); test: phosphorylation enrichment, bacterial display (enrichment ratio); higher = better substrate or ligand; peptides without Tyr show the background
Jak2 = Jak2 (UniProt O60674); test: as above
Hck = Hck (UniProt P08631); test: as above
AncSZ = test: as above
MERTK = MERTK (UniProt Q12866); test: as above
Fyn = Fyn (UniProt P06241); test: as above
c-Abl (mouse) = test: as above
EPHB1 = EPHB1 (UniProt P54762); test: as above
FGFR1 = FGFR1 (UniProt P11362); test: as above
FGFR1, sequence (P11362 whole entry, looked up): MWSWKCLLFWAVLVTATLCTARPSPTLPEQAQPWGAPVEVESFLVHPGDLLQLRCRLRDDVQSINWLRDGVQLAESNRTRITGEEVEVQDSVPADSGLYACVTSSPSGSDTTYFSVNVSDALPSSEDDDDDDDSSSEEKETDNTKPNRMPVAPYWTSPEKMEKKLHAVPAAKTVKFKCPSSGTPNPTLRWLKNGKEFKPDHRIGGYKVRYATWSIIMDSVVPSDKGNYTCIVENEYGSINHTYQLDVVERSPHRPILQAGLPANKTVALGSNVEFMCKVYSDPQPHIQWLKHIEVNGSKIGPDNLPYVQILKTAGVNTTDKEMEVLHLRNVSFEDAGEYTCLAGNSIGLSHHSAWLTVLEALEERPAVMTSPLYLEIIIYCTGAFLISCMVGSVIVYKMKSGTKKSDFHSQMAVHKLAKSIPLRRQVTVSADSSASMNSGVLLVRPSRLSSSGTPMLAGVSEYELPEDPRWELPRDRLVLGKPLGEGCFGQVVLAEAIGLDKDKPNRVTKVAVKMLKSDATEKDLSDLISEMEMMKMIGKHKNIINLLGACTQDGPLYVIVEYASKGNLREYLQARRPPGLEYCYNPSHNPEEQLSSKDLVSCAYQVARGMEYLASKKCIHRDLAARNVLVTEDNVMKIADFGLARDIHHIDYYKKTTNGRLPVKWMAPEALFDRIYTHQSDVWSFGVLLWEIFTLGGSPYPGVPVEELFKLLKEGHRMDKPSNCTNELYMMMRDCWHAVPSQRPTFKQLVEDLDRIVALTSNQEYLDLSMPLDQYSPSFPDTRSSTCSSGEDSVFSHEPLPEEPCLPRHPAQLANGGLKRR

EPHB2 = EPHB2 (UniProt P29323); test: as above
EPHB2, sequence (P29323 whole entry, looked up): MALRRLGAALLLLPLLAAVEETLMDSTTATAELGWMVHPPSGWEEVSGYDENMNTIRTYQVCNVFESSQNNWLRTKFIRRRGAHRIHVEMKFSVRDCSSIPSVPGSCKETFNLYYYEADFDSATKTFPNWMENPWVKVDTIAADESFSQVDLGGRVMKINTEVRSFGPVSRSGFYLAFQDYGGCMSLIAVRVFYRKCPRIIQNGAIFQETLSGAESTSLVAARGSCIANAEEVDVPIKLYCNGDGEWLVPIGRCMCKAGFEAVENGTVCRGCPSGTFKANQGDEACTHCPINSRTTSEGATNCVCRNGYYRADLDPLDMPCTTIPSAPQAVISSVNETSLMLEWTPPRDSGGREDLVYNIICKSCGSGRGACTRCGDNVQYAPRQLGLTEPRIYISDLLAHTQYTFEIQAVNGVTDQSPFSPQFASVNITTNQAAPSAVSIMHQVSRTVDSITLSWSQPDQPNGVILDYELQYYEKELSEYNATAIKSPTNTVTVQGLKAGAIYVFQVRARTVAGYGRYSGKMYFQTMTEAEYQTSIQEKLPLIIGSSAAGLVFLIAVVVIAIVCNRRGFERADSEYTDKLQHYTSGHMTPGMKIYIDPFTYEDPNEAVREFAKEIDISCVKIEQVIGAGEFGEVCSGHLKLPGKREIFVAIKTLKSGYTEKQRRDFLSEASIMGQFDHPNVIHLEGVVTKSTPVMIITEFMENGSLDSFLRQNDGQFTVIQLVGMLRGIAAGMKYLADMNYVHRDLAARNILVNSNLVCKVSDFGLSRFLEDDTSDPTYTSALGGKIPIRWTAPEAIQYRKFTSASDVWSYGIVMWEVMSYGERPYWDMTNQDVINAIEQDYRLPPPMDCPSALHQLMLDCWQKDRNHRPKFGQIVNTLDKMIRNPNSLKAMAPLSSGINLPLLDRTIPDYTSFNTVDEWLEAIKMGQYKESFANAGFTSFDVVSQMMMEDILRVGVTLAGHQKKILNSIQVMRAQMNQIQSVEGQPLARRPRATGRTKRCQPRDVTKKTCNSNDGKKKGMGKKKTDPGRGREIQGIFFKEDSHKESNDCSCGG

Fer (mouse) = test: as above
c-Src = test: as above
FGFR3 = FGFR3 (UniProt P22607); test: as above
FGFR3, sequence (P22607 whole entry, looked up): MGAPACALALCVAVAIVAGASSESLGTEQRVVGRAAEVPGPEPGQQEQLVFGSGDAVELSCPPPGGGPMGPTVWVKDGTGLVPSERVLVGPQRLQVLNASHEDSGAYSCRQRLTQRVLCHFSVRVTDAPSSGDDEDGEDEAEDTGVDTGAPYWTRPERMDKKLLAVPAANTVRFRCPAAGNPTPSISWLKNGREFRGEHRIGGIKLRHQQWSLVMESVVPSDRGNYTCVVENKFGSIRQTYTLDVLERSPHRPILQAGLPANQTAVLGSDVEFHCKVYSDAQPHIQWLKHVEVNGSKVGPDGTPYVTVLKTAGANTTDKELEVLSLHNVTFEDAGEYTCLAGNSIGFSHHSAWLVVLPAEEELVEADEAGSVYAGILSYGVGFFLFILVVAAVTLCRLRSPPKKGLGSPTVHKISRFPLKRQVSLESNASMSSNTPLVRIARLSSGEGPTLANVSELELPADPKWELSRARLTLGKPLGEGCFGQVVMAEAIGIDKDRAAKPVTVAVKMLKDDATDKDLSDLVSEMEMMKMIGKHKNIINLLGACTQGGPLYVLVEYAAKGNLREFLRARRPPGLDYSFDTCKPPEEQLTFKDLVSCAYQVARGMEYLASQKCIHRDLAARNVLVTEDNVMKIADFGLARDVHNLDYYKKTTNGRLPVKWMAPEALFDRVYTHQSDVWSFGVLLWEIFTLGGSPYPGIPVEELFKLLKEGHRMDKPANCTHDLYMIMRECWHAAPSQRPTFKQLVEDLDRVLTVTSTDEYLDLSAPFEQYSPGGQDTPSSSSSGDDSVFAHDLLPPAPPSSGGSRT

Grb2 SH2 = Grb2 SH2 (UniProt P62993); test: SH2 binding enrichment of the phosphorylated peptide, bacterial display (enrichment ratio); higher = better substrate or ligand; peptides without Tyr show the background
Grb2 SH2, sequence (P62993 whole entry, looked up): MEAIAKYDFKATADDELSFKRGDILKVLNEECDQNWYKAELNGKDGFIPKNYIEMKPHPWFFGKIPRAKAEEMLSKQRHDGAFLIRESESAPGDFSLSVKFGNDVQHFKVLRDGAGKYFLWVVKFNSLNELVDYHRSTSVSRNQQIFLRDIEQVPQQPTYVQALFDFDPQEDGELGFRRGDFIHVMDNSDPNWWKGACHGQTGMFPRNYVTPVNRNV

c-Src SH2 = test: as above
SHP2-C SH2 = test: as above
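Wherever SH2 binding enrichment of the phosphorylated peptide, bacterial display is given: peptide library displayed on the E. coli surface as eCPX fusions, selected cells deep-sequenced, score is each peptide's frequency after selection divided by its frequency in the input.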
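Wherever phosphorylation enrichment, bacterial display is given: 11-residue human phosphosite peptides and single-mutation variants displayed on the E. coli surface, counted by deep sequencing, each peptide's frequency after selection divided by its frequency in the unselected input library; frequency after pTyr selection over input frequency; kinase dosed for 20-30% of maximal phosphorylation in three min.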

Hck, sequence (P08631 whole entry, looked up): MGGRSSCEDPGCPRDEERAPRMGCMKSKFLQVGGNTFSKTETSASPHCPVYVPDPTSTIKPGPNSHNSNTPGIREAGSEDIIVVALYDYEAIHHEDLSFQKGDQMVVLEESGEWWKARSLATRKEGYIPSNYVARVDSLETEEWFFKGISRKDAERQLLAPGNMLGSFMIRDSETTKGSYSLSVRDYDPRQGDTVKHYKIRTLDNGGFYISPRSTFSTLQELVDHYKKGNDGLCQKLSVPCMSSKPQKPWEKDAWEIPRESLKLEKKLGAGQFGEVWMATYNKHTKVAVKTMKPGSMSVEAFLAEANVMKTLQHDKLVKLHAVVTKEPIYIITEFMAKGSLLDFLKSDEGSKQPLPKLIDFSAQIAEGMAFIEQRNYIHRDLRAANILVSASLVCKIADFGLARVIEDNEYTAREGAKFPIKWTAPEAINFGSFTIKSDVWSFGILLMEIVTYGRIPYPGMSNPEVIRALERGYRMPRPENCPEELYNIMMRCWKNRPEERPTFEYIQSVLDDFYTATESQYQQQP
EPHB1, sequence (P54762 whole entry, looked up): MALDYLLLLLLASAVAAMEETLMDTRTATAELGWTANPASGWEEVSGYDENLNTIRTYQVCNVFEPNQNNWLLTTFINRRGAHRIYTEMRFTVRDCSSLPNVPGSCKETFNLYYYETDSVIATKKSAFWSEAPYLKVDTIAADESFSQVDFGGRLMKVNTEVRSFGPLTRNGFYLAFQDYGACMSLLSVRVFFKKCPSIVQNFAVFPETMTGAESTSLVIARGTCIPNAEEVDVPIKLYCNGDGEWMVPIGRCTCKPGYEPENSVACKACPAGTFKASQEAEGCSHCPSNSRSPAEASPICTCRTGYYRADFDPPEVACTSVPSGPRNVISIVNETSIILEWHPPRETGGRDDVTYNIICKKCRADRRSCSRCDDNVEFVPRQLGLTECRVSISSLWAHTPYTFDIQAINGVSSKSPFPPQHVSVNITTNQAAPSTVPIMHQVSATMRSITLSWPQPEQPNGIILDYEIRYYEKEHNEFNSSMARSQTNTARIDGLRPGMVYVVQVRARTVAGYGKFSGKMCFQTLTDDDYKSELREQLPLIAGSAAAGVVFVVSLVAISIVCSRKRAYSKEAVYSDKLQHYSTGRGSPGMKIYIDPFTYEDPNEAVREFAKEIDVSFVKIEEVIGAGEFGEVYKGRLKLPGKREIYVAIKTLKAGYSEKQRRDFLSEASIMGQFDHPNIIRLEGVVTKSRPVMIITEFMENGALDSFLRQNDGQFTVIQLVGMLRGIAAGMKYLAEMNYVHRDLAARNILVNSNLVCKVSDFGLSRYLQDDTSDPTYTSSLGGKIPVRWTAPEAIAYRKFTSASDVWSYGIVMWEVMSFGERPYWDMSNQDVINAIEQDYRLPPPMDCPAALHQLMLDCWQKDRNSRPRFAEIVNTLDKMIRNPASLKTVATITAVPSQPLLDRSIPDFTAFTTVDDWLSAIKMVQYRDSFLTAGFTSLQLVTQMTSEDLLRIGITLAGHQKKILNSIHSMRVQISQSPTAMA
Fyn, sequence (P06241 whole entry, looked up): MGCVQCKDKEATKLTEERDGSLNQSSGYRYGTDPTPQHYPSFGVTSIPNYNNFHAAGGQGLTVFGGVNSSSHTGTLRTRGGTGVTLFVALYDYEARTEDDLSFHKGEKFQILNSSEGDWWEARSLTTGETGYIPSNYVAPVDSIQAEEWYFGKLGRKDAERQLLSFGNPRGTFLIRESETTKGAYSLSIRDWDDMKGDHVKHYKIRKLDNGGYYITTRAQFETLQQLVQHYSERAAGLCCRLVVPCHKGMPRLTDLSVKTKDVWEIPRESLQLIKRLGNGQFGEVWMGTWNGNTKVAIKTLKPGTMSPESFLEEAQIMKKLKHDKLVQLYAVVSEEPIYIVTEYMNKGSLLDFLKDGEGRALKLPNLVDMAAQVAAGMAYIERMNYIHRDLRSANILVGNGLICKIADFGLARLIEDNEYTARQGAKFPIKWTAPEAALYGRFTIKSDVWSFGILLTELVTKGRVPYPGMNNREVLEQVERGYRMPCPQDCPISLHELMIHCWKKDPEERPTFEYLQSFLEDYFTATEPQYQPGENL

Row | Sequence | phosphorylation enrichment (Fes) | phosphorylation enrichment (Jak2) | phosphorylation enrichment (Hck) | phosphorylation enrichment (AncSZ) | phosphorylation enrichment (MERTK) | phosphorylation enrichment (Fyn) | phosphorylation enrichment (c-Abl (mouse)) | phosphorylation enrichment (EPHB1) | phosphorylation enrichment (FGFR1) | phosphorylation enrichment (EPHB2) | phosphorylation enrichment (Fer (mouse)) | phosphorylation enrichment (c-Src) | phosphorylation enrichment (FGFR3) | SH2 binding enrichment (Grb2 SH2) | SH2 binding enrichment (c-Src SH2) | SH2 binding enrichment (SHP2-C SH2)
1 | VDSGVYAVPPP [BCAR1_Y410] | 0.795 | 0.709 | 8.02 | 2.04 | 9.97 | 8.7 | 20.9 | 7.54 | 1.2 | 19.6 | 5.46 | 4.94 | 1.01 | 0.863 | 0.434 | 0.624
2 | NAPNSYGRRLI [CDKN2A_Y44_P48L] | 0.616 | 0.531 | 0.504 | 0.627 | 0.442 | 0.413 | 0.48 | 0.372 | 0.446 | 0.454 | 0.475 | 0.449 | 0.509 | 0.897 | 0.332 | 0.32
3 | RLGLQYSQGLV [EIF2B4_Y214] | 1.31 | 1.19 | 0.588 | 0.876 | 0.365 | 0.732 | 1.16 | 0.676 | 0.853 | 0.725 | 0.654 | 0.683 | 0.851 | 0.955 | 0.452 | 0.553
4 | FGSRLYKFAFK [FANCD2_Y458_L456R_YF] | 0.651 | 0.582 | 0.439 | 0.571 | 0.406 | 0.433 | 0.456 | 0.354 | 0.399 | 0.557 | 0.311 | 0.515 | 0.484 | 0.877 | 0.568 | 0.583
5 | ATDLAYFLVCK [ASL_Y375_R379C_YF] | 1.61 | 2.42 | 0.674 | 1.6 | 0.517 | 0.564 | 1.1 | 0.789 | 1.16 | 0.617 | 0.698 | 0.655 | 1.26 | 0.776 | 0.425 | 0.748
6 | NDTAGYFIIGG [SEL1L3_Y399] | 1.14 | 6.38 | 0.601 | 1.15 | 0.834 | 0.582 | 0.78 | 0.547 | 1.77 | 0.523 | 0.494 | 0.584 | 1.34 | 0.693 | 7.59 | 0.812
7 | TVSQPYSFIEF [SEC22B_Y110_R108Q] | 3.48 | 0.933 | 3.08 | 1.29 | 8.32 | 4.91 | 0.805 | 0.878 | 11.5 | 0.54 | 19.4 | 5.66 | 8.47 | 1.06 | 9.41 | 10.1
8 | QPSPSYDSSGG [TCF12_Y70_R74G] | 0.731 | 0.579 | 0.604 | 0.668 | 0.452 | 0.667 | 0.477 | 0.44 | 0.611 | 0.778 | 0.553 | 0.478 | 0.623 | 1.02 | 0.573 | 0.977
9 | AVARPYHIQKW [ACSBG1_Y677_A673V] | 0.584 | 0.461 | 0.402 | 0.643 | 0.362 | 0.391 | 0.573 | 0.381 | 0.468 | 0.358 | 0.332 | 0.401 | 0.506 | 1.85 | 1.27 | 1.31
10 | QVKEQYQDVPM [PKP2_Y659_K654Q] | 1.98 | 1.12 | 0.701 | 1.15 | 0.565 | 0.65 | 2.19 | 0.555 | 0.835 | 0.762 | 0.86 | 0.573 | 0.914 | 0.945 | 0.883 | 0.752
11 | LKDEDYLKDIV [HAUS3_Y582] | 1.85 | 2.87 | 0.787 | 2.21 | 0.884 | 0.791 | 1.64 | 0.861 | 1.04 | 0.843 | 1.4 | 1.02 | 0.988 | 0.912 | 0.455 | 0.983
12 | PFWKLYESVKK [MKI67_Y241] | 1.39 | 1.58 | 4.34 | 1 | 0.966 | 1.03 | 1.07 | 6.75 | 0.52 | 2.31 | 1.8 | 1.58 | 0.703 | 1.16 | 0.766 | 0.625
13 | ERSMSYSDESR [SMG1_Y143] | 0.912 | 0.876 | 0.456 | 0.887 | 0.489 | 0.463 | 0.905 | 0.541 | 0.537 | 0.541 | 0.485 | 0.538 | 0.63 | 0.881 | 0.715 | 0.714
14 | YRDALYKFIVD [PHEX_Y250_M253I] | 1.25 | 1 | 0.706 | 1.08 | 1.65 | 0.623 | 0.916 | 1.97 | 0.952 | 1.02 | 0.759 | 0.638 | 1.38 | 0.774 | 0.683 | 0.774
15 | AYGNLYGSRKQ [YIPF7_Y59] | 0.462 | 0.516 | 6.04 | 0.525 | 0.502 | 1.38 | 0.442 | 0.324 | 0.484 | 0.3 | 0.367 | 2.08 | 0.481 | 0.748 | 0.593 | 0.584
16 | IEELTYIIKQD [STX5_Y137] | 1.52 | 1.25 | 0.528 | 1.33 | 0.469 | 0.461 | 0.801 | 0.55 | 0.551 | 0.578 | 0.411 | 0.554 | 0.665 | 0.712 | 0.404 | 0.779

Reference: the supplement of paper PMC10065799, “High-throughput profiling of sequence recognition by tyrosine kinases and SH2 domains using bacterial peptide display” (eLife, 2023)
